Target: T1, constitutively expressed nonmitochondrial Hsp70 homolog Hsc70 (human, UniProt P11142 2-646)
T1 construct: Endogenous; used as the control in the co-immunoprecipitation
Test: co-immunoprecipitation with hTid-1-specific mAbs, immunoblot for Hsc70
Protocol: FIG. 2C. Endogenous hTid-1L and hTid-1S coimmunoprecipitate with mtHsp70. Immunoprecipitation experiments were performed from U20S cells by using mAbs specific for either hTid-1, mtHsp70, or Hsc70. Immune complexes were analyzed by SDS/PAGE and Western blot with hTid-1-, mtHsp70-, or Hsc70-specific mAbs.
Because hTid-1 proteins have extremely well conserved J domains, we suspected that they may be interacting with the mitochondrial Hsp70 homolog, mtHsp70 (GRP75), which is also localized to the mitochondrial matrix. We performed coimmunoprecipitation-immunoblot experiments by using mAbs specific for hTid-1, mtHsp70, or the constitutively expressed nonmitochondrial Hsp70 homolog Hsc70 as a control. hTid-1-specific mAbs immunoprecipitate endogenous hTid-1L and hTid-1S in complex with mtHsp70 from human U2OS cells. (FIG. 2C).

T1 sequence (P11142 2-646 limits assumed): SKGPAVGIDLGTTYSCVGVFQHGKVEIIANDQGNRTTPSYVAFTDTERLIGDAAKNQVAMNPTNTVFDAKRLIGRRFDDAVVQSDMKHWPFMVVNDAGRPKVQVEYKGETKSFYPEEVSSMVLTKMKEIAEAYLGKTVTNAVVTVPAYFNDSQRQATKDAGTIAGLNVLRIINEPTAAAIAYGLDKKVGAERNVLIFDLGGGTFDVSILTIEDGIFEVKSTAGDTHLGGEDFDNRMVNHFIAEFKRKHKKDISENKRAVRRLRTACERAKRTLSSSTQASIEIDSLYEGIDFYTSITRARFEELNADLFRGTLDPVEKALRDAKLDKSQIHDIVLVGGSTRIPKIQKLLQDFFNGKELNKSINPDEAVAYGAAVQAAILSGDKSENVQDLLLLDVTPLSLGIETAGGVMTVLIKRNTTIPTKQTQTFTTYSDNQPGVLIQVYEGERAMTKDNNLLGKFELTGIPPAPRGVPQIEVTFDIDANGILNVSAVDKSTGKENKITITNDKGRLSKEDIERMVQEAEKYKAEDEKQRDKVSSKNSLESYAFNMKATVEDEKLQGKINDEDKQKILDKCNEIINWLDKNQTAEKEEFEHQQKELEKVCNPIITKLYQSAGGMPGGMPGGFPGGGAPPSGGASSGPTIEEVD

binding result	Binder
no binding	hTid-1L (other, Endogenous protein from human cell lysates; also called long form of human Tid1; 43 kDa TID1 splice variant) VSLTGTKHNPFICTASFHTSAPLAKEDYYQILGVPRNASQKEIKKAYYQLAKKYHPDTNKDDPKAKEKFSQLAEAYEVLSDEVKRKQYDAYGSAGFDPGASGSQHSYWKGGPTVDPEELFRKIFGEFSSSSFGDFQTVFDQPQEYFMELTFNQAAKGVNKEFTVNIMDTCERCNGKGNEPGTKVQHCHYCGGSGMETINTGPFVMRSTCRRCGGRGSIIISPCVVCRGAGQAKQKKRVMIPVPAGVEDGQTVRMPVGKREIFITFRVQKSPVFRRDGADIHSDLFISIAQALLGGTARAQGLYETINVTIPPGTQTDQKIRMGGKGIPRINSYGYGDHYIHIKIRVPKRLTSRQQSLILSYAEDETDVEGTVNGVTLTSSGGSTMDSSAGSKARREAGEDEEGFLSKLKKMFTS
no binding	hTid-1S (other, Endogenous protein from human cell lysates; also called short form of human Tid1; 40 kDa TID1 splice variant) VSLTGTKHNPFICTASFHTSAPLAKEDYYQILGVPRNASQKEIKKAYYQLAKKYHPDTNKDDPKAKEKFSQLAEAYEVLSDEVKRKQYDAYGSAGFDPGASGSQHSYWKGGPTVDPEELFRKIFGEFSSSSFGDFQTVFDQPQEYFMELTFNQAAKGVNKEFTVNIMDTCERCNGKGNEPGTKVQHCHYCGGSGMETINTGPFVMRSTCRRCGGRGSIIISPCVVCRGAGQAKQKKRVMIPVPAGVEDGQTVRMPVGKREIFITFRVQKSPVFRRDGADIHSDLFISIAQALLGGTARAQGLYETINVTIPPGTQTDQKIRMGGKGIPRINSYGYGDHYIHIKIRVPKRLTSRQQSLILSYAEDETDVEGTVNGVTLTSSGKRSTGN
